{
  "source": "paper PMC7055370",
  "about": "“Structure of the MICU1–MICU2 heterodimer provides insights into the gatekeeping threshold shift” (IUCrJ, 2020)",
  "proteins": {"B1": {"name": "human MICU2 ΔC helix (residues 84–401), selenomethionine derivative (domain or fragment, UniProt Q8IYU8 84-401, looked up)", "chain": "SLRKQRFMQFSSLEHEGEYYMTPRDFLFSVMFEQMERKTSVKKLTKKDIEDTLSGIQTAGCGSTFFRDLGDKGLISYTEYLFLLTILTKPHSGFHVAFKMLDTDGNEMIEKREFFKLQKIISKQDDLMTVKTNETGYQEAIVKEPEINTTLQMRFFGKRGQRKLHYKEFRRFMENLQTEIQEMEFLQFSKGLSFMRKEDFAEWLLFFTNTENKDIYWKNVREKLSAGESISLDEFKSFCHFTTHLEDFAIAMQMFSLAHRPVRLAEFKRAVKVATGQELSNNILDTVFKIFDLDGDECLSHEEFLGVLKNRMHRGLWV", "modifications": "selenomethionine (SeMet) derivative", "notes": "human MICU2 (mitochondrial calcium uptake protein 2), residues 84-401, without the C-terminal helix; pCold II vector with 6x His tag at the N terminus; also called mitochondrial calcium uptake protein 2; source: E. coli B834(DE3), purified (Ni-IDA, SEC); not shown: His6, N-terminal, kept"}},
  "biological_target": "the molecule itself",
  "experiment": "crystal structure; apo MICU1 ΔC - MICU2 ΔC (SeMet) mixed at a 1:1 molar ratio; crystals at 20°C in 20%(w/v) PEG 3350, 0.2 M ammonium citrate tribasic pH 7.5; 3.1 Å, SAD",
  "data": [
    {"protein": "B1", "values": [
      {"measurement": "binding result", "result": "binds"}
    ]}
  ]
}
